Patent US20040072368A1, “Lipoprotein receptor” (priority 2002, published 2004)

Key:
[1] = molecular target: β-subunit of ATP synthase (F1 fraction) exposed on submitochondrial particles; experiment: competition with 5 µg/ml 125I-labeled HDL3 on submitochondrial particles, 2 h at 4 °C
[2] = molecular target: β-subunit of ATP synthase (F1 fraction) exposed on submitochondrial particles; experiment: binding of 5 µg/ml 125I-labeled HDL3 to submitochondrial particles, 2 h at 4 °C, no competitor; conditions: scale: ng HDL3 protein bound per mg of mitochondrial proteins
[3] = molecular target: total solubilised porcine liver plasma membrane proteins; experiment: SPR (Biacore 3000, B1 chip), apoA-I immobilised by amine coupling, solubilised membrane proteins injected
[4] = molecular target: porcine liver plasma membrane proteins eluted from apoA-I affinity chromatography; experiment: SPR (Biacore), 1.5 µg of proteins injected on the apoA-I sensor chip

Substance | IC50 (read off the curve) [1] | 100% specific binding [2] | Kd [3] | relative increase of binding against crude solubilised homogenate [4]
HDL3 (from UniProt P02647 19-267) | 800 nM | 2050 | – | –
lipid free-apolipoprotein A-I (free-apoA-I) (from UniProt P02647 25-267) (ligand) | – | – | 1 nM | 4 fold
